In US20230242671A1 (Eli Lilly, published 2023):

Experiments:
[1] = target: T1, CaptureSelect Kappa XL ligand; assay: CaptureSelect Kappa XL affinity column after Protein A
T1 construct: also called Biotin-KappaXL; Kappa XL column
Text: Multispecific binding proteins of the present disclosure, in clarified medium or recovered from Protein A purification, may be subjected to a second purification step using a CaptureSelect™ Kappa XL (Thermo Fisher Cat. #494321001) pre-packed affinity column. Briefly, multispecific binding proteins of the present disclosure recovered from Protein A purification are subjected to a Kappa XL affinity column which has been equilibrated with a compatible buffer, such as phosphate buffered saline (PBS) at pH 7.4. The column is then washed to remove nonspecific binding components. The bound multispecific binding protein is eluted, for example, by pH gradient (such as 20 mM Tris buffer pH 7.0 to 10 mM sodium citrate buffer pH 3.0). Binding protein fractions are detected, such as by UV absorbance or SDS-PAGE, and then are pooled.
Percent flow through (% F T) and percent elution of exemplified heteromabs of the present disclosure following kappa XL column purification essentially as described herein is assessed. Briefly, various antibody formats (as set forth in Table 3) are subjected to Kappa XL column. Flow through material is considered to comprise of impurities, such as homodimers, or misassembled antibodies, whereas the Kappa XL ligand bound material (elution material) is considered to be the correctly assembled bispecific antibody.

[2] = target: T1, CaptureSelect Kappa XL ligand; assay: ELISA, antibody titrated on goat anti-human-IgG, Biotin-KappaXL at 1 ug/ml
Method: Binding of the light chain Fab region formats of Table 1a for exemplified IgG hetermabs to Kappa XL ligand may be assessed via ELISA. Briefly, 96-well flat bottom ELISA plates are coated with 2 ug/mL goat anti-human-IgG protein at 100 ul/well and incubated overnight at 4° C. The following day, plates are washed 3× with wash buffer (0.05% PBS-Tween 20) and blocked for 1 hr with blocking buffer (casein, 200 μL/well) at room temperature (RT). Plates are washed 3× with wash buffer, and binding proteins (as shown in Table 5) are added at 10 μg/mL and serially diluted at 1:3 at 100 uL/well in DPBS (Dulbecco's HyClone). Plates are incubated at RT for 1 hr, are washed 3× with wash buffer and Biotin-KappaXL is added at 1 ug/ml at 100 uL/well. Plates are then incubated for 1 hr at RT, washed 3×, and 100 uL/well of SA-AP is added to each well and incubated 30 min at RT. Plates are then washed 3×, and 100 uL/well PNAP substrate is added. Reactions are stopped and the optical density is measured using a colorimetric microplate reader set to 405 nm.

Protein A = target: T2, Protein A (UniProt P38507 37-327, biotin (site not stated)); assay: ELISA, antibody titrated on goat anti-human-kappa, Biotin-Protein A at 0.5 ug/ml
T2 construct: Reagent; also called Biotin-Protein A; Protein A ligand
Method: Binding of the heavy chain Fc region formats of Table 1b for exemplified IgG heteromabs to Protein A ligand may be assessed via ELISA. Briefly, 96-well flat bottom Elisa plates are coated with 2 ug/mL goat anti-human-kappa protein at 100 ul/well and incubated overnight at 4° C. The following day, plates are washed 3× with wash buffer 0.05% PBS-Tween 20 (PBS-T)) and blocked for 1 hr with blocking buffer (casein, 200 µL/well) at room temperature (RT). Plates are washed 3× with wash buffer, and binding proteins (as shown in Table 4) are added to individual wells at 10 μg/mL and serially diluted 1:3, at a volume of 100 uL/well in PBS-T. Plates are incubated at RT for 1 hr, and washed 3× with wash buffer. Biotin-Protein A at 0.5 ug/ml is added at 100 uL/well and plates are incubated for 1 hr at RT, washed 3×, and 100 uL/well of streptavidin labeled alkaline phosphatase (SA-AP) is added to each well. Plates are incubated 30 min at RT. Plates are then washed 3×, and 100 uL/well of p-Nitrophenyl Phosphate, Disodium Salt (PNAP)(Thermo Fisher Scientific) substrate is added. Reactions are stopped and optical density is measured using a colorimetric microplate reader set to 405 nm.

B1: cMet-BAH10 parental IgG1 heteromab (bispecific antibody)
heavy 1: EVQLVESGGGLVQPGGSLRLSCAASGYTFTSYWLHWVRKAPGKGLEWVGMIDPSNSDTRFNPEFKDRFTISADTSKNTAYLQMNSLRAEDTAVYYCATYRSYVTPLDYWGQGTLVTVSSASTKGPSVFPLAPSSKSTSGGTAALGCLVKDYFPEPVTVSWNSGALTSGVATGPAVLQSSGLYSLSSVVTVPSSSLGTQTYICNVNHKPSNTKVDKKVEPKSCDKTHTCPPCPAPEAAGGPSVFLFPPKPKDTLMISRTPEVTCVVVDVSHEDPEVKFNWYVDGVEVHNAKTKPREEQYNSTYRVVSVLTVLHQDWLNGKEYKCKVSNKALPAPIEKTISKAKGQPREPQVYTLPPSREEMTDNQVSLTCLVKGFYPSDIAVEWESNGQPENNYKTTPPVLMSDGSFFLASKLTVDKSRWQQGNVFSCSVMHEALHNHYTQKSLSLSPGK
light 1: RIQMTQSPSSLSASVGDRVTITCKSSQSLLYTSSQKNYLAWYQDKPGKAPKLLIYWASTRESGVPSRFSGSGSGTDFTLTISSLQPEDFATYYCQQYYAYPWTFGQGTKVEIKRTVAAPSVFIFPPSDEQLKSGTASVVCYLNNFYPREAKVQWKVDNALQSGNSQESVTEQDSKDSTYSLWSTLTLSKADYEKHKVYACEVTHQGLSSPVTKSFNRGEC
heavy 2: QVQLVQSGAEVKKPGSSVKVSCKASGYTFTTYYLHWVRYAPGQGLEWMGWIYPGNVHAQYNEKFKGRVTITADKSTSTAYMELSSLRSEDTAVYYCARSWEGFPYWGRGTTVTVSSASTKGPSVFPLAPCSKSTSGGTAALGCLVKDYFPEPVTVSWNSGALTSGVHTFPAVLQSSGLYSLSSVVTVPSSSLGTQTYICNVNHKPSNTKVDKKVEPDSGDKTHTCPPCPAPEAAGGPSVFLFPPKPKDTLMISRTPEVTCVVVDVSHEDPEVKFNWYVDGVEVHNAKTKPREEQYNSTYRVVSVLTVLHQDWLNGKEYKCKVSNKALPAPIEKTISKAKGQPRRPRVYTLPPSREEMTKNQVSLVCLVKGFYPSDIAVEWESNGQPENNYKTTPPVLDSDGSFFLYSVLTVDKSRWQQGNVFSCSVMHEALHNHYTQKSLSLSPGK
light 2: DIQMTQSPSSLSASVGDRVTITCKASQNVGINVAWYQRKPGDAPKSLISSASYRYSGVPSRFSGSGSGTDFTLTISSLQPEDFATYFCQQYDTYPFTFGQGTKVEIKRTVAAPSVFIFPPSKEQLKSGTASVVCLLNNFYPREAKVQWKVDNALQSGNSQESVTEQDSKDSTYSLSSTLTLSKADYEKHKVYACEVTHQGLSSPVTKSFNRGEC
notes: control; also called cMet-BAH10 IgG1 heteromab; cMet-BAH10 IgG heteromab
Question: How did the “% Elution” value [1] turn out when B1 was run?
Answer: 94.5%

Question: What about the “% Flow Through (FT)” value [1] of the same binder?
Answer: 5.5%

Question: What about the EC50 [2] of the same binder?
Answer: 0.57 nM

Question: What about the EC50 (Protein A) of the same binder?
Answer: 0.48 nM
